Entries after “also recorded” stand apart in the source; their conditions may differ.
Columns and labels:
[1] = test system: Caerulein-induced pancreatitis; test: Pretreatment with ADM inducers in caerulein-induced pancreatitis: histology (ADM) and CD45 infiltration; assay type: in vivo, mice; settings: EGF 1.2 mg/kg i.p., two injections a day for four days, before caerulein; 24 hrs after caerulein; compared with sulindac
Description: Epigenetic modifiers: Recently, the emerging role of epigenetic regulation has led to the development of a wide spectrum of small molecules targeting selectively bromodomain and extra-terminal (BET) protein family which are currently under evaluation in preclinical model of hematological malignancies and solid tumors (Asangani et al., 2014; Delmore et al., 2011; Filippakopoulos et al., 2010). Leveraging the persistent chromatin modifications induced by an acute inflammatory event, the possibility of limiting the detrimental effects of repeated pancreatitis was tested through the administration of INCB054329, a BRD4 inhibitor currently in phase I-II clinical studies in patients with advanced malignancies (Falchook et al., 2019).
(§1) Induction of acute pancreatitis. […] Control mice received injections of pyrogen-free PBS. Mice were examined daily for health conditions and sacrificed at the indicated time points by CO2 asphyxiation and cervical dislocation.
DAPI nuclear counterstaining was also performed.

[2] = test system: repeated caerulein-induced pancreatitis in iKRAS animals; test: Pharmacological modulation of ADM in iKRAS mice rechallenged with caerulein (repeated pancreatitis); assay type: in vivo
Procedure: To explore the hypothesis that ADM is a physiologic, fast and reversible adaptation mediated by epithelial memory that limits the detrimental effects of repeated pancreatitis, the effects of pharmacological modulation of ADM was evaluated in iKRAS animals subjected to repeated inflammation.
as §1
For ADM quantification two hematoxylin/eosin-stained 10×-magnification fields of whole-mount pancreata from two mice each experimental group were analyzed with ImageJ. ADM areas, expressed in pixels, were normalized to control (rechallenged) mice considered as reference.
Images, then, were analyzed with ImageJ and CC3 specific signal, expressed as area (pixels), was normalized to total pancreatic parenchyma using DAPI. From six to nine 4×-magnification fields of whole-mount pancreata from three mice each experimental group were analyzed.

[3] = EGF at pharmacological doses before induction of pancreatitis
[4] = iKRAS mice pretreated before and during CAE rechallenge, p<0.01

B1: EGF (protein, UniProt P01133 23-1207, looked up)
Pro-epidermal growth factor: PQHWSCPEGTLAGNGNSTCVGPAPFLIFSHGNSIFRIDTEGTNYEQLVVDAGVSVIMDFHYNEKRIYWVDLERQLLQRVFLNGSRQERVCNIEKNVSGMAINWINEEVIWSNQQEGIITVTDMKGNNSHILLSALKYPANVAVDPVERFIFWSSEVAGSLYRADLDGVGVKALLETSEKITAVSLDVLDKRLFWIQYNREGSNSLICSCDYDGGSVHISKHPTQHNLFAMSLFGDRIFYSTWKMKTIWIANKHTGKDMVRINLHSSFVPLGELKVVHPLAQPKAEDDTWEPEQKLCKLRKGNCSSTVCGQDLQSHLCMCAEGYALSRDRKYCEDVNECAFWNHGCTLGCKNTPGSYYCTCPVGFVLLPDGKRCHQLVSCPRNVSECSHDCVLTSEGPLCFCPEGSVLERDGKTCSGCSSPDNGGCSQLCVPLSPVSWECDCFPGYDLQLDEKSCAASGPQPFLLFANSQDIRHMHFDGTDYGTLLSQQMGMVYALDHDPVENKIYFAHTALKWIERANMDGSQRERLIEEGVDVPEGLAVDWIGRRFYWTDRGKSLIGRSDLNGKRSKIITKENISQPRGIAVHPMAKRLFWTDTGINPRIESSSLQGLGRLVIASSDLIWPSGITIDFLTDKLYWCDAKQSVIEMANLDGSKRRRLTQNDVGHPFAVAVFEDYVWFSDWAMPSVMRVNKRTGKDRVRLQGSMLKPSSLVVVHPLAKPGADPCLYQNGGCEHICKKRLGTAWCSCREGFMKASDGKTCLALDGHQLLAGGEVDLKNQVTPLDILSKTRVSEDNITESQHMLVAEIMVSDQDDCAPVGCSMYARCISEGEDATCQCLKGFAGDGKLCSDIDECEMGVPVCPPASSKCINTEGGYVCRCSEGYQGDGIHCLDIDECQLGEHSCGENASCTNTEGGYTCMCAGRLSEPGLICPDSTPPPHLREDDHHYSVRNSDSECPLSHDGYCLHDGVCMYIEALDKYACNCVVGYIGERCQYRDLKWWELRHAGHGQQQKVIVVAVCVVVLVMLLLLSLWGAHYYRTQKLLSKNPKNPYEESSRDVRSRRPADTEDGMSSCPQPWFVVIKEHQDLKNGGQPVAGEDGQAADGSMQPTSWRQEPQLCGMGTEQGCWIPVSSDKGSCPQVMERSFHMPSYGTQTLEGGVEKPHSLLSANPLWQQRALDPPHQMELTQ
modifications: Pro-epidermal growth factor
notes: growth factor used as MAPK agonist / ADM inducer
- infiltration of CD45 cells (marker of inflammation) [1]: almost completely suppressed; also recorded: significant decrease of CD45 infiltration
- ADM formation [2, 3]: largely promoted ADM formation
- tissue damage, evaluated as number of cells positive for cleaved caspase 3 [2, 3]: strong reduction of tissue damage
- decreased tissue damage as indicated by CC3 immunostaining [2, 4]: ~8 fold
- increase of ADM formation (relative area) with respect to control mice rechallenged with CAE alone [2, 4]: ~3 fold

From patent US20230190718A1, “METHODS FOR THE TREATMENT OF PANCREATITIS AND PREVENTION OF PANCREATIC CANCER” (BOARD OF REGENTS, THE UNIVERSITY OF TEXAS SYSTEM, priority 2020, published 2023)
